Residue numbers refer to the chain shown, from its start.
Assays:
Assay in all cases: cell-based or functional assay
[1] = molecular target: Modified IL-18 polypeptide of SEQ ID NO: 21 (K53A, T63A) (human, UniProt Q14116 37-193)
[2] = molecular target: Modified IL-18 polypeptide of SEQ ID NO: 6 (E06K) (human, UniProt Q14116 37-193)
[3] = molecular target: T1, Modified IL-18 polypeptide of SEQ ID NO: 3 (Y01G, F02A, E06K, M51G, K53A, D54A, S55A, T63A) (human, UniProt Q14116 37-193)
T1 chain: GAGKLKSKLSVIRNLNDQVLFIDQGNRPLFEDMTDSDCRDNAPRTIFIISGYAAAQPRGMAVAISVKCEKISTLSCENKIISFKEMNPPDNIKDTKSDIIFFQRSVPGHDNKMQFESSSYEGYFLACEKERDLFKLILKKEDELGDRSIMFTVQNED

[4] = molecular target: T2, Modified IL-18 polypeptide of SEQ ID NO: 10 (E06K, K53A, S55A, T63A) (human, UniProt Q14116 37-193)
T2 chain: T1 chain with G1Y, A2F, G51M, A54D

[5] = molecular target: T3, IL-18 polypeptide of SEQ ID NO: 1 (native sequence, human IL-18 37-193) (human, UniProt Q14116 37-193)
T3 sequence: T1 chain with G1Y, A2F, K6E, G51M, A53K, A54D, A55S, A63T

[6] = molecular target: Modified IL-18 polypeptide of SEQ ID NO: 5 (S55A) (human, UniProt Q14116 37-193)
[7] = molecular target: Modified IL-18 polypeptide of SEQ ID NO: 8 (E06K, S55A) (human, UniProt Q14116 37-193)
[8] = molecular target: T4, Modified IL-18 polypeptide of SEQ ID NO: 23 (K53A, T63A, C38S, C68S, C76S, C127S, K70C) (human, UniProt Q14116 37-193)
T4 chain: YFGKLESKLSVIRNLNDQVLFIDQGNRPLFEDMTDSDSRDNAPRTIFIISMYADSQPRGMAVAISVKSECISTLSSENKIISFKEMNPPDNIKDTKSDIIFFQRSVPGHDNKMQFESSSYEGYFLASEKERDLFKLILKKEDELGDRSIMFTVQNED

[9] = molecular target: Modified IL-18 polypeptide of SEQ ID NO: 9 (K53A, S55A) (human, UniProt Q14116 37-193)
[10] = molecular target: T5, Modified IL-18 polypeptide of SEQ ID NO: 22 (E06K, K53A, C38S, C68S, C76S, C127S, K70C) (human, UniProt Q14116 37-193)
T5 chain: T4 chain with E6K, A63T

[11] = molecular target: T6, Modified IL-18 polypeptide of SEQ ID NO: 71 with a 30 kDa PEG attached at residue C68 (E6K, C38S, K53A, … (human, UniProt Q14116 37-193, 30 kDa PEG on Cys 68 (30 kDa DBCO-polyethylene glycol clicked to a bromoacetamido-PEG5-azide linker on the cysteine)))
T6 chain: T4 chain with E6K, A63T, S68C, C70K, S76C, S127C

[12] = molecular target: T7, Modified IL-18 polypeptide of SEQ ID NO: 16 (C38S, C68S, C76S, C127S, K70C) (human, UniProt Q14116 37-193)
T7 chain: T4 chain with A53K, A63T

[13] = molecular target: T8, Modified IL-18 polypeptide of SEQ ID NO: 11 (E06K, K53A, S55A, Y01G) (human, UniProt Q14116 38-193)
T8 chain: T1 chain with A2F, G51M, A54D, A63T

[14] = molecular target: T9, Modified IL-18 polypeptide of SEQ ID NO: 2 (E06K, K53A, S55A) (human, UniProt Q14116 37-193)
T9 chain: T1 chain with G1Y, A2F, G51M, A54D, A63T

[15] = molecular target: Modified IL-18 polypeptide of SEQ ID NO: 19 (T63A) (human, UniProt Q14116 37-193)

B1: Fc fused human IL-18BP isoform a (IL-18BPa) (Fc fusion, UniProt O95998 31-194, looked up, not shown: a dimerising Fc or GST)
chain: TPVSQTTTAATASVRSTKDPCPSQPPVFPAAKQCPALEVTWPEVEVPLNGTLSLSCVACSRFPNFSILYWLGNGSFIEHLPGRLWEGSTSRERGSTGTQLCKALVLEQLTPALHSTNFSCVLVDPEQVVQRHVVLAQLWAGLRATLPPTQEALPSSHSSPQQQG
- IC50 (nM), IL-18BPa inhibition of IFNγ release by NK-92 cells (1 nM IL-18 analyte) [1]: 18.2 nM
- IC50 (nM), IL-18BPa inhibition of IFNγ release by NK-92 cells (1 nM IL-18 analyte) [2]: 7.79 nM
- IC50 (nM), IL-18BPa inhibition of IFNγ release by NK-92 cells (1 nM IL-18 analyte) [3]: > 55 nM
- IC50 (nM), IL-18BPa inhibition of IFNγ release by NK-92 cells (1 nM IL-18 analyte) [4]: 1060 nM
- IC50 (nM), IL-18BPa inhibition of IFNγ release by NK-92 cells (1 nM IL-18 analyte) [5]: 1.47 nM
- IC50 (nM), IL-18BPa inhibition of IFNγ release by NK-92 cells (1 nM IL-18 analyte) [6]: 4.46 nM
- IC50 (nM), IL-18BPa inhibition of IFNγ release by NK-92 cells (1 nM IL-18 analyte) [7]: 15 nM
- IC50 (nM), IL-18BPa inhibition of IFNγ release by NK-92 cells (1 nM IL-18 analyte) [8]: > 1000 nM
- IC50 (nM), IL-18BPa inhibition of IFNγ release by NK-92 cells (1 nM IL-18 analyte) [9]: 37.3 nM
- IC50 (nM), IL-18BPa inhibition of IFNγ release by NK-92 cells (1 nM IL-18 analyte) [10]: 23.5 nM
- IC50 (nM), IL-18BPa inhibition of IFNγ release by NK-92 cells (1 nM IL-18 analyte) [11]: 0.66 nM
- IC50 (nM), IL-18BPa inhibition of IFNγ release by NK-92 cells (1 nM IL-18 analyte) [12]: 0.114 nM
- IC50 (nM), IL-18BPa inhibition of IFNγ release by NK-92 cells (1 nM IL-18 analyte) [13]: 27.8 nM
- IC50 (nM), IL-18BPa inhibition of IFNγ release by NK-92 cells (1 nM IL-18 analyte) [14]: 229 nM
- IC50 (nM), IL-18BPa inhibition of IFNγ release by NK-92 cells (1 nM IL-18 analyte) [15]: 0.239 nM
